The values below come from paper PMC8064603.

The target of the test is bovine RNase B, biotinylated (bovine) (UniProt P61823). The test can be described thus: BLI; biotinylated RNase B captured on streptavidin biosensors; purified fimbriae at 50 and 100 nM as analyte; 0.2% BSA in HBS; global fit: conformational change model for FimH^wt, 1:1 Langmuir model for FimH^FocH; one representative experiment. For orientation: BLI is a label-free optical method that tracks binding on a fibre tip over time.
Sequence of UniProt P61823 (P61823 27-150): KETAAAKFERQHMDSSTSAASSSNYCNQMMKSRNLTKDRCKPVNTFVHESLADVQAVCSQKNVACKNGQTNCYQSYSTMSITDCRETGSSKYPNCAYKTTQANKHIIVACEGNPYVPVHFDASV

What is called Kd is the equilibrium constant for the complex coming apart. High values mean a looser complex, low ones a tighter complex. Consider “purified type 1 fimbriae carrying wild-type FimH adhesin (FimH^wt) of E. coli K12 (from UniProt P08191 22-300) (complex)”, for which the Kd was found to be 149 nM; the kact (rate of transition from LAS to HAS, conformational change model) was determined as 0.0072 s⁻¹; the kinact (rate of transition from HAS to LAS, conformational change model) amounted to 0.0128 s⁻¹; the koff (LAS dissociation rate, conformational change model) was 0.256 s⁻¹. The substance further had a kon (LAS association rate, conformational change model) of 1.1e+06 M⁻¹ s⁻¹.
